This passage reports Kd results from patent publication US20210388110A1 (published 2021).

Residue numbers refer to the chain shown, from its start.

The assay has as its target T1, soluble human GPC3 (human, UniProt P51654 25-563, limits assumed).
T1 construct: soluble human GPC3 as analyte; also called glypican 3
Put plainly: SPR (Biacore), soluble human GPC3.

T1 sequence (P51654 other isoform, or with tags, fused parts or gaps limits assumed, form in doubt): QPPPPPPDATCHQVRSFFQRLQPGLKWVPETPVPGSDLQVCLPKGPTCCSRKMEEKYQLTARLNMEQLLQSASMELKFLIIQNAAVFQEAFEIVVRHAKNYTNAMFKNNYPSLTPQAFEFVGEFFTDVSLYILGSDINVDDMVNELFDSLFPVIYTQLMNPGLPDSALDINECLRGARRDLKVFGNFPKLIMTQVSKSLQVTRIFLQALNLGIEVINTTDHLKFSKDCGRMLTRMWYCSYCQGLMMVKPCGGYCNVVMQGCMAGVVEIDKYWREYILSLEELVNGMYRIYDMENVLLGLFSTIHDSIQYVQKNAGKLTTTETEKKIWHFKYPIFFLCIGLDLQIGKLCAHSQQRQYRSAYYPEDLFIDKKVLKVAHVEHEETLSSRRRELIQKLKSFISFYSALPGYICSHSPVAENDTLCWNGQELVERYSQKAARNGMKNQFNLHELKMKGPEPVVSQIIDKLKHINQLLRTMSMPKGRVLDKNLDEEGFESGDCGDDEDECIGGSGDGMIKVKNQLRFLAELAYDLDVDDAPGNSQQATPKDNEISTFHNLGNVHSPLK

B1: H0610-G1dh/none-Hi-Kn010G3/L0032-k0 (antibody, human IgG1, kappa)
heavy: not shown
chain: EPKSSDKTHTCPPCPAPELLGGPSVFLFPPKPKDTLMISRTPEVTCVVVDVSHEDPEVKFNWYVDGVEVHNAKTKPREEQYNSTYRVVSVLTVLHQDWLNGKEYKCKVSNKALPAPIEKTISKAKGQPREPQVCTLPPSRDELTKNQVSLWCLVKGFYPSDIAVEWESNGQPENNYKTTPPVLDSDGSFFLYSKLTVDKSRWQQGNVFSCSVMHEALHNRYTQKSLSLSP
light: DIVMTQSPLSLPVTPGEPASISCRSSQSLVRSNRNTYLHWYQQKPGQAPRLLIYKVSNRFSGVPDRFSGSGSGTDFTLKISRVEAEDVGVYYCGQGTQVPYTFGQGTKLEIKRTVAAPSVFIFPPSDEQLKSGTASVVCLLNNFYPREAKVQWKVDNALQSGNSQESVTEQDSKDSTYSLSSTLTLSKADYEKHKVYACEVTHQGLSSPVTKSFNRGEC
notes: single-arm (one Fab)
B1 had a Kd of 3.72 nM.

B2: H0610-G1dh/none-Hi-Kn010G3/L0141-k0 (antibody, human IgG1, kappa)
heavy: not shown
chain: B1 chain
light: B1 light with R31H, S61M
notes: single-arm (one Fab)
As for B2, the Kd was determined as 3.86 nM.

B3: H0610-G1dh/none-Hi-Kn010G3/L0134-k0 (antibody, human IgG1, kappa)
heavy: not shown
chain: B1 chain
light: B1 light with R31H, F60Y
notes: single-arm (one Fab)
In turn, B3 displayed a Kd of 2.53 nM.

B4: H0610-G1dh/none-Hi-Kn010G3/L0163-k0 (antibody, human IgG1, kappa)
heavy: not shown
chain: B1 chain
light: B1 light with R31H, G94Y
notes: single-arm (one Fab)
B4 showed a Kd of 3.38 nM.

B5: H0610-G1dh/none-Hi-Kn010G3/L0125-k0 (antibody, human IgG1, kappa)
heavy: not shown
chain: B1 chain
light: B1 light with R31H, F60M
notes: single-arm (one Fab)
Take B5: the Kd was determined as 1.71 nM.

B6: H0610-G1dh/none-Hi-Kn010G3/L0065-k0 (antibody, human IgG1, kappa)
heavy: not shown
chain: B1 chain
light: B1 light with R31H, N35G
notes: single-arm (one Fab)
Molecule B6 returned a Kd of 4.79 nM.

B7: H0610-G1dh/none-Hi-Kn010G3/L0085-k0 (antibody, human IgG1, kappa)
heavy: not shown
chain: B1 chain
light: B1 light with R31H, H39E
notes: single-arm (one Fab)
Take B7: the Kd is 1.17 nM.

B8: H0610-G1dh/none-Hi-Kn010G3/L0064-k0 (antibody, human IgG1, kappa)
heavy: not shown
chain: B1 chain
light: B1 light with R31H, N35F
notes: single-arm (one Fab)
Molecule B8 came in with a Kd of 3.37 nM.

B9: H0610-G1dh/none-Hi-Kn010G3/L0157-k0 (antibody, human IgG1, kappa)
heavy: not shown
chain: B1 chain
light: B1 light with R31H, G94N
notes: single-arm (one Fab)
As to B9, the Kd turned out to be 2.6 nM.

B10: H0610-G1dh/none-Hi-Kn010G3/L0079-k0 (antibody, human IgG1, kappa)
heavy: not shown
chain: B1 chain
light: B1 light with R31H, L38I
notes: single-arm (one Fab)
Molecule B10 registered a Kd of 4.23 nM.

B11: H0610-G1dh/none-Hi-Kn010G3/L0093-k0 (antibody, human IgG1, kappa)
heavy: not shown
chain: B1 chain
light: B1 light with R31H, H39Q
notes: single-arm (one Fab)
B11 gave a Kd of 0.106 nM.

B12: H0610-G1dh/none-Hi-Kn010G3/L0042-k0 (antibody, human IgG1, kappa)
heavy: not shown
chain: B1 chain
light: B1 light with R31H, S32M
notes: single-arm (one Fab)
As to B12, the Kd worked out at 4.27 nM.

B13: H0610-G1dh/none-Hi-Kn010G3/L0075-k0 (antibody, human IgG1, kappa)
heavy: not shown
chain: B1 chain
light: B1 light with R31H, N35W
notes: single-arm (one Fab)
As for B13, the Kd is 2.85 nM.

B14: H0610-G1dh/none-Hi-Kn010G3/L0090-k0 (antibody, human IgG1, kappa)
heavy: not shown
chain: B1 chain
light: B1 light with R31H, H39M
notes: single-arm (one Fab)
Consider B14, for which binding was characterised by a dissociation constant (Kd) of 1.12 nM.

B15: H0610-G1dh/none-Hi-Kn010G3/L0181-k0 (antibody, human IgG1, kappa)
heavy: not shown
chain: B1 chain
light: B1 light with R31H, V99P
notes: single-arm (one Fab)
As for B15, the Kd came out at 3.51 nM.

B16: H0610-G1dh/none-Hi-Kn010G3/L0140-k0 (antibody, human IgG1, kappa)
heavy: not shown
chain: B1 chain
light: B1 light with R31H, S61L
notes: single-arm (one Fab)
B16 came in with a Kd of 3.38 nM.

B17: H0610-G1dh/none-Hi-Kn010G3/L0167-k0 (antibody, human IgG1, kappa)
heavy: not shown
chain: B1 chain
light: B1 light with R31H, G96S
notes: single-arm (one Fab)
B17 registered a Kd of 0.211 nM.

B18: H0610-G1dh/none-Hi-Kn010G3/L0160-k0 (antibody, human IgG1, kappa)
heavy: not shown
chain: B1 chain
light: B1 light with R31H, G94T
notes: single-arm (one Fab)
B18 displayed a Kd of 2.12 nM.

B19: H0610-G1dh/none-Hi-Kn010G3/L0044-k0 (antibody, human IgG1, kappa)
heavy: not shown
chain: B1 chain
light: B1 light with R31H, S32P
notes: single-arm (one Fab)
The molecule B19 gave a Kd of 4.57 nM.

B20: H0610-G1dh/none-Hi-Kn010G3/L0066-k0 (antibody, human IgG1, kappa)
heavy: not shown
chain: B1 chain
light: B1 light with R31H, N35H
notes: single-arm (one Fab)
Turning to B20, binding was characterised by a dissociation constant (Kd) of 4.2 nM.

B21: H0610-G1dh/none-Hi-Kn010G3/L0148-k0 (antibody, human IgG1, kappa)
heavy: not shown
chain: B1 chain
light: B1 light with R31H, S61W
notes: single-arm (one Fab)
As for B21, binding was put at a Kd of 3.28 nM.

B22: H0610-G1dh/none-Hi-Kn010G3/L0039-k0 (antibody, human IgG1, kappa)
heavy: not shown
chain: B1 chain
light: B1 light with R31H, S32H
notes: single-arm (one Fab)
The molecule B22 came in with a Kd of 3.41 nM.

B23: H0610-G1dh/none-Hi-Kn010G3/L0129-k0 (antibody, human IgG1, kappa)
heavy: not shown
chain: B1 chain
light: B1 light with R31H, F60R
notes: single-arm (one Fab)
Consider B23, for which the Kd came to 4.54 nM.

B24: H0610-G1dh/none-Hi-Kn010G3/L0145-k0 (antibody, human IgG1, kappa)
heavy: not shown
chain: B1 chain
light: B1 light with R31H, S61R
notes: single-arm (one Fab)
The molecule B24 gave a Kd of 2.66 nM.

B25: H0610-G1dh/none-Hi-Kn010G3/L0152-k0 (antibody, human IgG1, kappa)
heavy: not shown
chain: B1 chain
light: B1 light with R31H, G94F
notes: single-arm (one Fab)
The molecule B25 returned a Kd of 2.36 nM.

B26: H0610-G1dh/none-Hi-Kn010G3/L0143-k0 (antibody, human IgG1, kappa)
heavy: not shown
chain: B1 chain
light: B1 light with R31H, S61P
notes: single-arm (one Fab)
Molecule B26 returned a Kd of 0.573 nM.

B27: H0610-G1dh/none-Hi-Kn010G3/L0047-k0 (antibody, human IgG1, kappa)
heavy: not shown
chain: B1 chain
light: B1 light with R31H, S32W
notes: single-arm (one Fab)
B27 returned a Kd of 2.23 nM.

B28: H0610-G1dh/none-Hi-Kn010G3/L0038-k0 (antibody, human IgG1, kappa)
heavy: not shown
chain: B1 chain
light: B1 light with R31H, S32F
notes: single-arm (one Fab)
B28 came in with a Kd of 2.75 nM.

B29: H0610-G1dh/none-Hi-Kn010G3/L0149-k0 (antibody, human IgG1, kappa)
heavy: not shown
chain: B1 chain
light: B1 light with R31H, G94A
notes: single-arm (one Fab)
The molecule B29 had a Kd of 2.16 nM.

B30: H0610-G1dh/none-Hi-Kn010G3/L0173-k0 (antibody, human IgG1, kappa)
heavy: not shown
chain: B1 chain
light: B1 light with R31H, V99F
notes: single-arm (one Fab)
In turn, B30 came in with a Kd of 2.83 nM.

B31: H0610-G1dh/none-Hi-Kn010G3/L0082-k0 (antibody, human IgG1, kappa)
heavy: not shown
chain: B1 chain
light: B1 light with R31H, L38V
notes: single-arm (one Fab)
B31: the Kd was determined as 3.43 nM.

B32: H0610-G1dh/none-Hi-Kn010G3/L0107-k0 (antibody, human IgG1, kappa)
heavy: not shown
chain: B1 chain
light: B1 light with R31H, N58I
notes: single-arm (one Fab)
B32 displayed a Kd of 4.38 nM.

B33: H0610-G1dh/none-Hi-Kn010G3/L0041-k0 (antibody, human IgG1, kappa)
heavy: not shown
chain: B1 chain
light: B1 light with R31H, S32L
notes: single-arm (one Fab)
As to B33, the Kd was 4.85 nM.

B34: H0610-G1dh/none-Hi-Kn010G3/L0161-k0 (antibody, human IgG1, kappa)
heavy: not shown
chain: B1 chain
light: B1 light with R31H, G94V
notes: single-arm (one Fab)
Take B34: binding was put at a Kd of 0.973 nM.

B35: H0610-G1dh/none-Hi-Kn010G3/L0151-k0 (antibody, human IgG1, kappa)
heavy: not shown
chain: B1 chain
light: B1 light with R31H, G94E
notes: single-arm (one Fab)
B35 gave a Kd of 1.25 nM.

B36: H0610-G1dh/none-Hi-Kn010G3/L0154-k0 (antibody, human IgG1, kappa)
heavy: not shown
chain: B1 chain
light: B1 light with R31H, G94I
notes: single-arm (one Fab)
Consider B36, for which binding was put at a Kd of 1.01 nM.

B37: H0610-G1dh/none-Hi-Kn010G3/L0175-k0 (antibody, human IgG1, kappa)
heavy: not shown
chain: B1 chain
light: B1 light with R31H, V99H
notes: single-arm (one Fab)
Molecule B37 registered a Kd of 3.84 nM.

B38: H0610-G1dh/none-Hi-Kn010G3/L0045-k0 (antibody, human IgG1, kappa)
heavy: not shown
chain: B1 chain
light: B1 light with R31H, S32Q
notes: single-arm (one Fab)
Consider B38, for which the Kd worked out at 4.66 nM.

B39: H0610-G1dh/none-Hi-Kn010G3/L0155-k0 (antibody, human IgG1, kappa)
heavy: not shown
chain: B1 chain
light: B1 light with R31H, G94L
notes: single-arm (one Fab)
Take B39: the affinity, expressed as Kd, was 1.28 nM.

B40: H0610-G1dh/none-Hi-Kn010G3/L0127-k0 (antibody, human IgG1, kappa)
heavy: not shown
chain: B1 chain
light: B1 light with R31H, F60P
notes: single-arm (one Fab)
Regarding B40, binding was characterised by a dissociation constant (Kd) of 3.12 nM.

B41: H0610-G1dh/none-Hi-Kn010G3/L0124-k0 (antibody, human IgG1, kappa)
heavy: not shown
chain: B1 chain
light: B1 light with R31H, F60L
notes: single-arm (one Fab)
For B41, the affinity, expressed as Kd, was 0.972 nM.

B42: H0610-G1dh/none-Hi-Kn010G3/L0168-k0 (antibody, human IgG1, kappa)
heavy: not shown
chain: B1 chain
light: B1 light with R31H, G96T
notes: single-arm (one Fab)
For B42, the Kd was found to be 0.699 nM.

B43: H0610-G1dh/none-Hi-Kn010G3/L0122-k0 (antibody, human IgG1, kappa)
heavy: not shown
chain: B1 chain
light: B1 light with R31H, F60I
notes: single-arm (one Fab)
As for B43, the Kd is 2.42 nM.

B44: H0610-G1dh/none-Hi-Kn010G3/L0115-k0 (antibody, human IgG1, kappa)
heavy: not shown
chain: B1 chain
light: B1 light with R31H, N58W
notes: single-arm (one Fab)
In turn, B44 displayed a Kd of 4.34 nM.
